T1: dimeric soluble FcγRIIa-Fc (UniProt P12318 34-217)
T1 construct: also called soluble FcγIIA; FcγIIA
T1 sequence (looked up): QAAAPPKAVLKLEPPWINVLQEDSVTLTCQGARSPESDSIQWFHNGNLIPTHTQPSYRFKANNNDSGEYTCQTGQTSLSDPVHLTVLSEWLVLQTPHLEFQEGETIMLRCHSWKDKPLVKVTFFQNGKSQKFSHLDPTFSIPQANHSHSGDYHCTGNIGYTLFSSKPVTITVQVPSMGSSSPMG

T2: FcγRIIB (CD32B) on Daudi cells (human, UniProt P31994 43-310)
T2 construct: whole, on cells; also called this human B cell tumor line
T2 sequence (looked up): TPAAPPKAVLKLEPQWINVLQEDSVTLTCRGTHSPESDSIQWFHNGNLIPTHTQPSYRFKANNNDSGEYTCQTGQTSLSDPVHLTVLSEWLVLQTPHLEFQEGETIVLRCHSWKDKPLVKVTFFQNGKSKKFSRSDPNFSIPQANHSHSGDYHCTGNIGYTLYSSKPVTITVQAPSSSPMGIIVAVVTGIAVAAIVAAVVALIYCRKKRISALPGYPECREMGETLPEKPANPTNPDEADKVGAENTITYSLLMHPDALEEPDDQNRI


Key:
[1] = target: T1, dimeric soluble FcγRIIa-Fc; experiment: ELISA, 100 ng/well soluble FcγIIA coated
Description: Protocal for ELISA assay: 100 ng/well of soluble FcγIIA in carbonate buffer was coated on 96-well Maxisorp plates at 4° C. overnight. A serial of two-fold dilution of conditioned medium of Ch2B6; hu2B6HC/hu2B6LC; hu2B6HC/hu2B6LC(N50Y); hu2B6HC/hu2B6LC(N50Y,V51A); and purified IV.3 starting from 25 ng/well was added to the each well. The plate was incubated at room temperature for 1 hour. The binding was detected by HRP conjugated F(ab′)2 goat anti human IgG F(ab′)2 specific secondary antibody for Ch2B6 and all hu2B6 samples and HRP conjugated F(ab′)2 goat anti mouse IgG (H+L) secondary antibody for IV.3. After incubation with the secondary antibody for approximately 45 minutes, the plate was developed using a TMB substrate. After 5 mins incubation, the reaction was stopped by 1% H₂SO₄. The OD₄₅₀ nm was ready by SOFTmax program. Between each step, the plates were washed 3 times with PBS/0.1% Tween 20. The plates were blocked by 0.5% BSA in PBS/0.1% Tween 20 for 30 mins at room temperature before adding the serial diluted antibodies.

[2] = target: T2, FcγRIIB (CD32B) on Daudi cells; experiment: FACS on Daudi cells, antibody at 0.1 µg/ml
Description: (§1) Protocol for FACS analysis. Approximately 10⁶ Daudi cells were used for each antibody staining Cells were washed once with PBS. Primary antibodies (Ch2B6, Hu2B6Hc/ch2B6Lc, human IgG1 ) were diluted into 0.5, 0.1, 0.02 μg/mL in PBS/1% BSA and 100 μL of diluted antibodies was transferred to the cells. After 30 mins incubation at 4° C., cells were washed once with 1 mL PBS/1% BSA. PE conjugated F(ab′)₂ fragment of goat anti human IgG Fc specific (Jackson ImmunoReseach, Inc.) was used as secondary antibody at 1:1000 dilution. After 30 mins incubation at 4° C., cells were washed once with 1 mL PBS/1% BSA. The cells were then resuspended in 500 μL of PBS/1% BSA and subjected to be FACS analysis.
(§2) Transfections of HEK-293 cells were performed using the following combinations: hu2B6HC/hu2B6LC; hu2B6HC/hu2B6LC(N50Y); hu2B6HC/hu2B6LC(N50Y,V51A); ch2B6HC/ch2B6LC. After three days in culture the amount of human IgG expressed was quantitated by an ELISA assay, using the method described above. Binding to dimeric soluble FcγRIIb-Fc was determined by ELISA assay. […] FACS analysis was then performed to measure the binding of the mAbs to Daudi cells (Table 8).

[3] = target: T2, FcγRIIB (CD32B) on Daudi cells; experiment: FACS on Daudi cells, antibody at 0.02 µg/ml
Description: as §1, §2

[4] = target: T2, FcγRIIB (CD32B) on Daudi cells; experiment: FACS on Daudi cells, antibody at 0.5 µg/ml
Description: as §1, §2

binding result [1] | Mean Fluorescence [2] | Mean Fluorescence [3] | Mean Fluorescence [4] | Binder
no binding | – | – | – | hu2B6HC/hu2B6LC(N50Y) (antibody, V domains shown, Human C-Gamma1 and C-kappa constant regions; also called Hu2B6N50Y; Hu2B6 N50Y) VH: QVQLVQSGAEVKKPGASVKVSCKASGYTFTNYWIHWVRQAPGQGLEWMGVIDPSDTYPNYNKKFKGRVTMTTDTSTSTAYMELRSLRSDDTAVYYCARNGDSDYYSGMDYWGQGTTVTVSS VL: EIVLTQSPDFQSVTPKEKVTITCRTSQSIGTNIHWYQQKPDQSPKLLIKYVSESISGVPSRFSGSGSGTDFTLTINSLEAEDAATYYCQQSNTWPFTFGGGTKVEIK
no binding | – | – | – | hu2B6HC/hu2B6LC(N50Y,V51A) (antibody, V domains shown, Human C-Gamma1 and C-kappa constant regions; also called Hu2B6N50Y,V51A; Hu2B6N50Y, V51A) VH: QVQLVQSGAEVKKPGASVKVSCKASGYTFTNYWIHWVRQAPGQGLEWMGVIDPSDTYPNYNKKFKGRVTMTTDTSTSTAYMELRSLRSDDTAVYYCARNGDSDYYSGMDYWGQGTTVTVSS VL: EIVLTQSPDFQSVTPKEKVTITCRTSQSIGTNIHWYQQKPDQSPKLLIKYASESISGVPSRFSGSGSGTDFTLTINSLEAEDAATYYCQQSNTWPFTFGGGTKVEIK
no binding | – | – | – | hu2B6HC/hu2B6LC mAb (humanized 2B6) (antibody, V domains shown, Human C-Gamma1 and C-kappa constant regions) VH: QVQLVQSGAEVKKPGASVKVSCKASGYTFTNYWIHWVRQAPGQGLEWMGVIDPSDTYPNYNKKFKGRVTMTTDTSTSTAYMELRSLRSDDTAVYYCARNGDSDYYSGMDYWGQGTTVTVSS VL: EIVLTQSPDFQSVTPKEKVTITCRTSQSIGTNIHWYQQKPDQSPKLLIKNVSESISGVPSRFSGSGSGTDFTLTINSLEAEDAATYYCQQSNTWPFTFGGGTKVEIK
– | 141 | 45.6 | 193 | ch2B6HC/ch2B6LC mAb (chimeric 2B6) (antibody, V domains shown, Tested as conditioned medium of transfected HEK-293 cells; also called ch2B6 mAb; chimeric mAb) VH: QVQLQQPVTELVRPGASVMLSCKASDYPFTNYWIHWVKQRPGQGLEWIGVIDPSDTYPNYNKKFKGKATLTVVVSSSTAYMQLSSLTSDDSAVYYCARNGDSDYYSGMDYWGQGTSVTVSS VL: DILLTQSPAILSVSPGERVSFSCRTSQSIGTNIHWYQQRTNGFPRLLIKNVSESISGIPSRFSGSGSGTDFILSINSVESEDIADYYCQQSNTWPFTFGGGTKLEIK
